The data set can be described thus: label from the status in PepcDB records.

We go through 18 sequences from a protein production outcome set (Wang et al. 2014).

With “MAASSACLVGNGLSVNTTTKQRLSKHFSGRQTSFSSVIRTSKVNVVKASLDGKKKQEGRRDFLKILLGNAGVGLVASGKANADEQGVSSSRMSYSRFLEYLDKDRVNKVDLYENGTIAIVEAVSPELGNRVERVRVQLPGLSQELLQKLRAKNIDFAAHNAQEDQGSVLFNLIGNLAFPALLIGGLFLLSRRSGGGMGGPGGPGNPLQFGQSKAKFQMEPNTGVTFDDVAGVDEAKQDFMEVVEFLKKPERFTAVGAKIPKGVLLIGPPGTGKTLLAKAIAGEAGVPFFSISGSEFVEMFVGVGASRVRDLFKKAKENAPCIVFVDEIDAVGRQRGTGIGGGNDEREQTLNQLLTEMDGFEGNTGVIVVAATNRADILDSALLRPGRFDRQVSVDVPDVKGRTDILKVHAGNKKFDNDVSLEIIAMRTPGFSGADLANLLNEAAILAGRRARTSISSKEIDDSIDRIVAGMEGTVMTDGKSKSLVAYHEVGHAVCGTLTPGHDAVQKVTLIPRGQARGLTWFIPSDDPTLISKQQLFARIVGGLGGRAAEEIIFGDSEVTTGAVGDLQQITGLARQMVTTFGMSDIGPWSLMDSSAQSDVIMRMMARNSMSEKLAEDIDSAVKKLSDSAYEIALSHIKNNREAMDKLVEVLLEKETIGGDEFRAILSEFTEIPPENRVPSSTTTTPASAPTPAAV”, the protein production entry is “not failed”.

With “MAATGVDKDRPRAMTSTTYLGLLLVGIQVLGFVAAIHAVLTVRTAQGAIAWATSLVFMPYLTLLPYLVFGRSRFDAYIEARRQANREMHLAAAELDWRPWVEEALAARQVSGYKGLKALVRMTRTPTLANNRVRLLVNGEASFEAMFKAISAARQVILVQFFIVRDDALGQRLQQLLLERAANGVEVFFLYDAIGSHALPHRYVERLRQGGVQMHGFSTGSGMLNRFQVNFRNHRKVVVVDGECGFVGGHNVGVEYLGEKPPLAPWRDTHMELRGPAVACLQESFAEDWYWATHSLPPLILPPQYDSEGALCQVVASGPADAQETCSLFFVEMINAAHERVWITSPYFVPDEAVMAALRLAVLRGVDVRLLIPSRPDHRTVYAASSLYALEAIRAGVKVFRYQPGFLHQKVVLVDRDTAAVGSANLDNRSFRLNFEVMVVTVDEGFAGEVEAMLEADFAESLEFTPEDRRSVRRLQQLGMRVARLVSPIL”, the protein production entry was “failed”.

With “MAAYGLYTHIASNKLRSMLLLAGLFALVYVLVYAGALVAEVVINGNETVAFYLSHAFLDLKVAAPVATVVTAVWVVIAYFFHQSMIDAVTGGHDVTRKEEPRLYNLLENLCISRGITMPKLKIMESPALNAFATGLNPRQYSITVTTGLLNALNDKEIEAVLGHELTHIKNGDVQLMVVAVIIAGVVGFFGELFFRLFTNLSWNSGGSWSSGSSSSRSSSSSSDSKNSGGGAVIVIIIAVVLIVVAWLMSQVVKLALSRSREYLADAGSVELTKDPDAMISALRKIENRGELPGATSAVMELCVDNPREGFADLFATHPSVQSRVDALVKFAGGHDPGPLPDPTDETEQPEAQGAPQDAPPPLSQRPWGDAAGPANPPPVPAPSPSGTTAGNPIGNPMGPWGRH”, the protein production result was “failed”.

With “MACIHIESSHPPAWKTHSVQENKPANADDISNTTLPEHHDGGDGGIQETWAAIGDSGGRGGGYFAGESRKKLEKKKSQVLLEGYALDDQDDLTRAKSLTDDDLEELKGCLDLGFGFSYDEIPELCNTLPALELCYSMSQKFLDDKQQNHHKSQEEDDSSPPPTTTAPIANWKISSPAELESIFIFEPEKDRLCKNEVSAIVR”, the protein production result is “failed”.

Turning to “MACNTCKMCESADKKLESFVASKDVETAFHRTEDQKVKCGFGLQGVCCRLCSNGPCRVTPKSPRGICGADADTIVARNFLRAVASGAACYLHVVENTAKNLKNVGITKGVVKGEKTLNQLAEMFGIESDEKYDKCIKVADKVINDLYKSRDDKMELVEKIAYAPRVKKWKELGIMPGGAKSEVFDAIVKSSTNLNSDPVDMLVNCLNLGISTGLYGLTLTNLLNDVMLGEPVIRMAPVGFNVIDPDYINIMITGHQHSTFANFQDRLKDEDVIKLAQSVGAKGFKLVGCTCVGQDLQLRGEHYQEVFAGHAGNNFTSEAVLSTGAIDIVLSEFNCTIPGLEPIADKYKVKMVCLDDVAKKANAEYIGLDRSKLDELSNTLIEKALESYKERRGSIEIDIPKDHGFEQSLTGVSEKNLKAFLGDSWKPLINLIAEGKIKGVAAVVGCSNMTAGGHDVNTVELTKELIKKDIIVLSAGCSTGGLENVGLMSPGAEELAGENLKEVCKTLGIPPVLNFGPCLAIGRLEIVATELAAELGIDLPQLPLVLSAPQWLEEQALADGAFGLALGLPLHLALPPFITGGKLVTEVLTEKLKDLTGGHVIVNPDPKSSANQLEEIIIDRRKNLGLKDVECNA”, the protein production entry is “failed”.

As to “MADERYNRKNPAVKRILQEVKEMQANPSDDFMSLPLEENIFEWQFAIRGPGDTEFEGGIYHGRIQLPADYPFKPPSFMLLTPNGRFETNTKICLSISNYHPEHWQPSWSVRTALVALIAFMPTSPNGALGSVDYPKDERRTLAIKSRETPPKYGSPERQKIIDEIHQYILSKATVVPKPLPLECSQAPSIVSEAHSQVEPQEAITVVEERSIATTDTIVDDQIIEETAEAVNTAASVVPAAAPLPAVEVVVKASVSGEQRMARRAAQKPVDDRLFTWAAVGLTIAIMVLLLKKFIKSNGYSTGFMDDQS”, the protein production entry was “failed”.

For the sequence “MADFQGETEMTAEVFDPRALRDAFGAFATGVTVVTASDAAGKPIGFTANSFTSVSLDPPLLLVCLAKSSRNYESMTSAGRFAINVLSETQKDVSNTFARPVEDRFAAVDWRLGRDGCPIFSDVAAWFECSMQDIIEAGDHVIIIGRVTAFENSGLNGLGYARGGYFTPRLAGKAVSAAVEGEIRLGAVLEQQGAVFLAGNETLSLPNCTVEGGDPARTLAAYLEQLTGLNVTIGFLYSVYEDKSDGRQNIVYHALASDGAPRQGRFLRPAELAAAKFSSSATADIINRFVLESSIGNFGIYFGDETGGTVHPIANKDAHS”, the protein production entry is “not failed”.

“MADIDQASKTEMEAAAFRHLLRHLDEHKDVQNIDLMIQADFCRNCLAKWLMEAATEQGVELDYDGAREYVYGMPFAEWKTLYQKPASEAQLAAFEAKQAARKR”: the protein production entry is listed as “not failed”.

In the case of “MADKAFHTRLINMRRDLHEHPELSFQEVETTKKIRRWLEEEQIEILDVPQLKTAVIAEIKGREDGPVIAIRADIDALPIQEQTNLPFASKVDGTMHACGHDFHTASIIGTAMLLNQRRAELKGTVRFIFQPAEEIAAGARKVLEAGVLNGVSAIFGMHNKPDLPVGTIGVKEGPLMASVDRFEIVIKGKGGHASIPNNSIDPIAAAGQIISGLQSVVSRNISSLQNAVVSITRVQAGTSWNVIPDQAEMEGTVRTFQKEARQAVPEHMRRVAEGIAAGYGAQAEFKWFPYLPSVQNDGTFLNAASEAAARLGYQTVHAEQSPGGEDFALYQEKIPGFFVWMGTNGTEEWHHPAFTLDEEALTVASQYFAELAVIVLETIK”, the protein production entry is listed as “not failed”.

As for “MADKAVADRTIEGLTRAGAAMAAGEIDQAAAHLQAAAQLCPDEPMIWALLGEVLLLLDRPQDGLGALDRALALAPEDPRPRFHRARAFERLDRLAEALADQEALAILCANKAEVWHNLGLLRRAGGDPSGAEAAFGRALALEPSRAESALALAHSLLGRAAWAEGFAHYEARLSLPGWQRPAPLPGRRWRGEDPAGRTLLVSAEQGLGDGVQFLRYLPLIKGAGKVIVECHPPLRRLIAAQPGVDATIAFGEAIPDLGAEGLTIPLASLALPLAGGAPLGERIPYVSKPRLRPQGDRPRIGLAWRSSDRAELRRDPPLAALAALAAIPAVDWVSLQFAPTDYPALPLDLRPMASVDDLDDTAALIADLDLVISVDTAVAHLAGAMGKPLWVLLGPRADWRWTASAQSSPWYPSCVPFFHGAEGWPGVIAAVSERLKAAFNGPPAR”, the protein production entry is on record as “failed”.

“MADKVYEATAEAKGYNEEGVPIVLTVKAIKKDGKVVVTDIVAKHQETDKIGAVAIEKLIEEVKTKQNYNKLDSVAGATSTSAGFRRAIRNAVKDIEKQNLEHHHHHH”: the protein production result is recorded as “not failed”.

With “MADMESLDTAEMQEAAEKQAALFPNGGKSAEPTAAKHTATGLADGNKKPPVSNSFLDKFFQISKRGSTLAREFRGGLVTFFTMAYIVILNPLILGGFSAENAPTDVAGGWLSAAQVGAVTGLTAGVMTIIFGLVANLPFGLAAGLGINSFLAVAVIQEVTWPEAMGLVVINGILIVLFGATGARTAIFKAVPKELKAAITVGIGLFIAFIGFVDSGFVRATTGGPPVQLGDNGSITSIPTLVFIVGLLTMGILVARKIQGGLLIGIVATTVLAAVVEAVFHIGPGSADNPGGWHLNVPILSSQLVSVPDLSLVGQFDLFGSFARIGGLAATMLVFTLVFTNFFDAMGTMTGLAKSAGVAHKDGTFPKLKSAFIVEGMGAVVGGATSGSSNTVYIDSAAGIGEGARTGLASVVTGLLFLGSMFFTPLTSVVPLEVAAAALVVVGAMMMAQIREIKFTKFSIALPAFLTIVTMPLTYSIANGIGVGFISFAVISAASGKAKKVHPLMWVVTAGFIIYFARGPINALMGV”, the protein production result is given as “failed”.

Consider “MADNSATRVRVPSDRNSRRKIKGEVDIISSLPDVILQHILFSFQTKYAIRTSVLSKRWRHEADAINKALSQYTAPKMMNFHLKINKNNSLHHIKKWTEFAMSRNVENMSLDVRFRSNKIPRFYEINSSVKSLSHRLDLHDVIPRHGVSWTSLKKFSLSYCGLPDESAKILSGCPILEWPMQIVAPQIHCLKLRNTQLPCTLVDVSSLTEAEVLDIIIFPVNLSYNADFLHATMLEMLKKLKNVEKLTFSGSYLQNLSVAEKRGVPFPMFKVKALTLEMKHFVISDIERMLQSSPNLKKLTVRAKDNTGKYLYRYFARLESGSMLELKKGV”, for which the protein production result was “failed”.

Turning to “MADPIRIFIGSGEASRIERQVAIDSLQRMTDRPLAITAFNGTHNALEVLGEPPRPAPMSLRVKYWNATEFSLYRFLIPELCGYQGRAIYIDSDVVCLHDIGELFDTDLEGADFLAKAEAYPDRAGALWGLSVVLFDCDRCRFPLEQFIDELEAGVYDYRDLPCMGPRFLNKRPYQIGALDPRWNSFDFADRETRLIHYTDLKRQPWKRPGHPYGDLWFKAMQQALDSGILTDTEISQAIKRFNVRDDIREGNRPRWLTRQRLRSWLRQVKQQLRPVKV”, the protein production result was “failed”.

As for “MADQLIEEVKQLIIDALRIEGMTPAEIDTDAPLFGEGLGLDSIDALQLVVAMEKQYGVVVPDAATGTKVFQSVRTVADFVAENRKLEHHHHHH”, the protein production entry is recorded as “failed”.

As to “MADRVIRADAKGVMRVEDGQAYNEAGQRLDDHALIPPEDANEDQARLNAQLAARDAAGLIVDLHNRGIDRHLWEQNEDAIGVERHNRGVDRHQPQIPAAIPLAAEPRRTLGDFNRPGMFYANRSAIVPPPYQRNDYESHLFYYITLHI”, the protein production result is recorded as “failed”.

For the sequence “MADTGEVQFMKPFISEKSSKSLEIPLGFNEYFPAPFPITVDLLDYSGRSWTVRMKKRGEKVFLTVGWENFVKDNNLEDGKYLQFIYDRDRTFYVIIYGHNMC”, the protein production result was “not failed”.

On to “MADVEIMQTVQTEVKKTTKKVKKSSKRRESEVQISEVEVDATIEERGGEYTKAMDKDWHSGHFCCWQCDESLTGQRYVIRDDHPYCIKCYENVFANTCEECNKIIGIDSKDLSYKDKHWHEACFLCFKCHLSLVDKQFGAKADKIYCGNCYDAQFASRCDGCGEVFRAGTKKMEYKTRQWHENCFCCCVCKTAIGTKSFIPREQEIYCAGCYEEKFATRCIKCNKVITSGGVTYKNEPWHRECFTCTHCNITLAGQRFTSRDEKPYCAECFGELFAKRCTACVKPITGIGGTRFISFEDRHWHHDCFVCASCKASLVGRGFITDGPDILCPDCAKQKLM”, for which the protein production entry was “failed”.
